B1: alpha/beta hydrolase variant of SEQ ID NO: 10 (R155K, N167T, S174C, V175A) (enzyme)
chain: MTDQSPETRDIFVPHAFEEQQVDLGEVVMNYVEAGSADHPALLLLPEQTGSWWSYEPVIGLLAESFHVFAVDIRGQGRSTWTPKRYSLDNFGNDLVRFISLVVKRPVIVSGNSSGGVLAAWLSAYAMPGQIRAALCEDTPFFASELVPAHGHSVKQAAGPAFELYRTFLGDQWCAADWDGFAAAAKASPSKIMSLFPSSDEPPQNLKEYDPEWARAFFEGTVALHCPHDLMLSQVKTPILITHHARAVDPHSGDLLGALSDFQAERAQAIIESAGVPVEYASFPDALHMMHQFEPERFAEVLTSWVARLPADTPGAHHHHHH
notes: homo-tetramer; also called zearalenone-cleaving polypeptide
B2: alpha/beta hydrolase variant of SEQ ID NO: 19 (V28T, N167T, F168Y, S174C, D179E, A182C, A183R, K186R, A187R, F218Y) (enzyme)
chain: MTDQSPETRDIFVPHAFEEQQVDLGEVTMNYVEAGSADHPALLLLPEQTGSWWSYEPVIGLLAESFHVFAVDIRGQGRSTWTPKRYSLDNFGNDLVRFISLVVKRPVIVSGNSSGGVLAAWLSAYAMPGQIRAALCEDTPFFASELVPAHGHSVRQAAGPAFELYRTYLGDQWCVADWEGFCRAARRSPSKIMSLFPSSDEPPQNLKEYDPEWARAFYEGTVALHCPHDLMLSQVKTPILITHHARAVDPHSGDLLGALSDFQAERAQAIIESAGVPVEYASFPDALHMMHQFEPERFAEVLTSWVARLPADTPGAHHHHHH
notes: as for B1
B3: alpha/beta hydrolase variant of SEQ ID NO: 12 (N167S, S174C) (enzyme)
chain: MTDQSPETRDIFVPHAFEEQQVDLGEVVMNYVEAGSADHPALLLLPEQTGSWWSYEPVIGLLAESFHVFAVDIRGQGRSTWTPKRYSLDNFGNDLVRFISLVVKRPVIVSGNSSGGVLAAWLSAYAMPGQIRAALCEDTPFFASELVPAHGHSVRQAAGPAFELYRSFLGDQWCVADWDGFAAAAKASPSKIMSLFPSSDEPPQNLKEYDPEWARAFFEGTVALHCPHDLMLSQVKTPILITHHARAVDPHSGDLLGALSDFQAERAQAIIESAGVPVEYASFPDALHMMHQFEPERFAEVLTSWVARLPADTPGAHHHHHH
notes: as for B1
B4: alpha/beta hydrolase variant of SEQ ID NO: 13 (N167T, S174C, F218Y) (enzyme)
chain: MTDQSPETRDIFVPHAFEEQQVDLGEVVMNYVEAGSADHPALLLLPEQTGSWWSYEPVIGLLAESFHVFAVDIRGQGRSTWTPKRYSLDNFGNDLVRFISLVVKRPVIVSGNSSGGVLAAWLSAYAMPGQIRAALCEDTPFFASELVPAHGHSVRQAAGPAFELYRTFLGDQWCVADWDGFAAAAKASPSKIMSLFPSSDEPPQNLKEYDPEWARAFYEGTVALHCPHDLMLSQVKTPILITHHARAVDPHSGDLLGALSDFQAERAQAIIESAGVPVEYASFPDALHMMHQFEPERFAEVLTSWVARLPADTPGAHHHHHH
notes: as for B1
B5: alpha/beta hydrolase variant of SEQ ID NO: 15 (N167T, F168Y, S174C, D179E, A182C, A183R, K186R, A187R, F218Y) (enzyme)
chain: MTDQSPETRDIFVPHAFEEQQVDLGEVVMNYVEAGSADHPALLLLPEQTGSWWSYEPVIGLLAESFHVFAVDIRGQGRSTWTPKRYSLDNFGNDLVRFISLVVKRPVIVSGNSSGGVLAAWLSAYAMPGQIRAALCEDTPFFASELVPAHGHSVRQAAGPAFELYRTYLGDQWCVADWEGFCRAARRSPSKIMSLFPSSDEPPQNLKEYDPEWARAFYEGTVALHCPHDLMLSQVKTPILITHHARAVDPHSGDLLGALSDFQAERAQAIIESAGVPVEYASFPDALHMMHQFEPERFAEVLTSWVARLPADTPGAHHHHHH
notes: as for B1
B6: alpha/beta hydrolase variant of SEQ ID NO: 14 (N167T, F168Y, S174C) (enzyme)
chain: MTDQSPETRDIFVPHAFEEQQVDLGEVVMNYVEAGSADHPALLLLPEQTGSWWSYEPVIGLLAESFHVFAVDIRGQGRSTWTPKRYSLDNFGNDLVRFISLVVKRPVIVSGNSSGGVLAAWLSAYAMPGQIRAALCEDTPFFASELVPAHGHSVRQAAGPAFELYRTYLGDQWCVADWDGFAAAAKASPSKIMSLFPSSDEPPQNLKEYDPEWARAFFEGTVALHCPHDLMLSQVKTPILITHHARAVDPHSGDLLGALSDFQAERAQAIIESAGVPVEYASFPDALHMMHQFEPERFAEVLTSWVARLPADTPGAHHHHHH
notes: as for B1
B7: alpha/beta hydrolase variant of SEQ ID NO: 17 (D10N, N167T, F168Y, S174C, D179E, A182C, A183R, K186R, A187R, F218Y) (enzyme)
chain: MTDQSPETRNIFVPHAFEEQQVDLGEVVMNYVEAGSADHPALLLLPEQTGSWWSYEPVIGLLAESFHVFAVDIRGQGRSTWTPKRYSLDNFGNDLVRFISLVVKRPVIVSGNSSGGVLAAWLSAYAMPGQIRAALCEDTPFFASELVPAHGHSVRQAAGPAFELYRTYLGDQWCVADWEGFCRAARRSPSKIMSLFPSSDEPPQNLKEYDPEWARAFYEGTVALHCPHDLMLSQVKTPILITHHARAVDPHSGDLLGALSDFQAERAQAIIESAGVPVEYASFPDALHMMHQFEPERFAEVLTSWVARLPADTPGAHHHHHH
notes: as for B1
B8: alpha/beta hydrolase variant of SEQ ID NO: 11 (R155K, N167T, S174C, V175T) (enzyme)
chain: MTDQSPETRDIFVPHAFEEQQVDLGEVVMNYVEAGSADHPALLLLPEQTGSWWSYEPVIGLLAESFHVFAVDIRGQGRSTWTPKRYSLDNFGNDLVRFISLVVKRPVIVSGNSSGGVLAAWLSAYAMPGQIRAALCEDTPFFASELVPAHGHSVKQAAGPAFELYRTFLGDQWCTADWDGFAAAAKASPSKIMSLFPSSDEPPQNLKEYDPEWARAFFEGTVALHCPHDLMLSQVKTPILITHHARAVDPHSGDLLGALSDFQAERAQAIIESAGVPVEYASFPDALHMMHQFEPERFAEVLTSWVARLPADTPGAHHHHHH
notes: as for B1
B9: alpha/beta hydrolase variant of SEQ ID NO: 20 (H39R, N167T, F168Y, S174C, D179E, A182C, A183R, K186R, A187R, F218Y) (enzyme)
chain: MTDQSPETRDIFVPHAFEEQQVDLGEVVMNYVEAGSADRPALLLLPEQTGSWWSYEPVIGLLAESFHVFAVDIRGQGRSTWTPKRYSLDNFGNDLVRFISLVVKRPVIVSGNSSGGVLAAWLSAYAMPGQIRAALCEDTPFFASELVPAHGHSVRQAAGPAFELYRTYLGDQWCVADWEGFCRAARRSPSKIMSLFPSSDEPPQNLKEYDPEWARAFYEGTVALHCPHDLMLSQVKTPILITHHARAVDPHSGDLLGALSDFQAERAQAIIESAGVPVEYASFPDALHMMHQFEPERFAEVLTSWVARLPADTPGAHHHHHH
notes: as for B1
B10: alpha/beta hydrolase variant of SEQ ID NO: 2 (N167T, F168Y, S174C, F218Y) (enzyme)
chain: MTDQSPETRDIFVPHAFEEQQVDLGEVVMNYVEAGSADHPALLLLPEQTGSWWSYEPVIGLLAESFHVFAVDIRGQGRSTWTPKRYSLDNFGNDLVRFISLVVKRPVIVSGNSSGGVLAAWLSAYAMPGQIRAALCEDTPFFASELVPAHGHSVRQAAGPAFELYRTYLGDQWCVADWDGFAAAAKASPSKIMSLFPSSDEPPQNLKEYDPEWARAFYEGTVALHCPHDLMLSQVKTPILITHHARAVDPHSGDLLGALSDFQAERAQAIIESAGVPVEYASFPDALHMMHQFEPERFAEVLTSWVARLPADTPGAHHHHHH
notes: as for B1
B11: alpha/beta hydrolase variant of SEQ ID NO: 16 (N167T, F168Y, S174C, D179E, A182C, A183R, K186R, A187R, F218Y, Q268L, V306I) (enzyme)
chain: MTDQSPETRDIFVPHAFEEQQVDLGEVVMNYVEAGSADHPALLLLPEQTGSWWSYEPVIGLLAESFHVFAVDIRGQGRSTWTPKRYSLDNFGNDLVRFISLVVKRPVIVSGNSSGGVLAAWLSAYAMPGQIRAALCEDTPFFASELVPAHGHSVRQAAGPAFELYRTYLGDQWCVADWEGFCRAARRSPSKIMSLFPSSDEPPQNLKEYDPEWARAFYEGTVALHCPHDLMLSQVKTPILITHHARAVDPHSGDLLGALSDFQAERALAIIESAGVPVEYASFPDALHMMHQFEPERFAEVLTSWIARLPADTPGAHHHHHH
notes: as for B1
B12: alpha/beta hydrolase variant of SEQ ID NO: 18 (F17Y, I59M, N167T, F168Y, S174C, D179E, A182C, A183R, K186R, A187R, F218Y) (enzyme)
chain: MTDQSPETRDIFVPHAYEEQQVDLGEVVMNYVEAGSADHPALLLLPEQTGSWWSYEPVMGLLAESFHVFAVDIRGQGRSTWTPKRYSLDNFGNDLVRFISLVVKRPVIVSGNSSGGVLAAWLSAYAMPGQIRAALCEDTPFFASELVPAHGHSVRQAAGPAFELYRTYLGDQWCVADWEGFCRAARRSPSKIMSLFPSSDEPPQNLKEYDPEWARAFYEGTVALHCPHDLMLSQVKTPILITHHARAVDPHSGDLLGALSDFQAERAQAIIESAGVPVEYASFPDALHMMHQFEPERFAEVLTSWVARLPADTPGAHHHHHH
notes: as for B1
B13: alpha/beta hydrolase variant of SEQ ID NO: 21 (E47S, G50E, N167T, F168Y, S174C, D179E, A182C, A183R, K186R, A187R, F218Y) (enzyme)
chain: MTDQSPETRDIFVPHAFEEQQVDLGEVVMNYVEAGSADHPALLLLPSQTESWWSYEPVIGLLAESFHVFAVDIRGQGRSTWTPKRYSLDNFGNDLVRFISLVVKRPVIVSGNSSGGVLAAWLSAYAMPGQIRAALCEDTPFFASELVPAHGHSVRQAAGPAFELYRTYLGDQWCVADWEGFCRAARRSPSKIMSLFPSSDEPPQNLKEYDPEWARAFYEGTVALHCPHDLMLSQVKTPILITHHARAVDPHSGDLLGALSDFQAERAQAIIESAGVPVEYASFPDALHMMHQFEPERFAEVLTSWVARLPADTPGAHHHHHH
notes: as for B1
B14: alpha/beta hydrolase variant of SEQ ID NO: 23 (A63S, S65H, N167T, F168Y, S174C, D179E, A182C, A183R, K186R, A187R, F218Y) (enzyme)
chain: MTDQSPETRDIFVPHAFEEQQVDLGEVVMNYVEAGSADHPALLLLPEQTGSWWSYEPVIGLLSEHFHVFAVDIRGQGRSTWTPKRYSLDNFGNDLVRFISLVVKRPVIVSGNSSGGVLAAWLSAYAMPGQIRAALCEDTPFFASELVPAHGHSVRQAAGPAFELYRTYLGDQWCVADWEGFCRAARRSPSKIMSLFPSSDEPPQNLKEYDPEWARAFYEGTVALHCPHDLMLSQVKTPILITHHARAVDPHSGDLLGALSDFQAERAQAIIESAGVPVEYASFPDALHMMHQFEPERFAEVLTSWVARLPADTPGAHHHHHH
notes: as for B1
B15: alpha/beta hydrolase variant of SEQ ID NO: 22 (P57E, V58A, I59M, N167T, F168Y, S174C, D179E, A182C, A183R, K186R, A187R, F218Y) (enzyme)
chain: MTDQSPETRDIFVPHAFEEQQVDLGEVVMNYVEAGSADHPALLLLPEQTGSWWSYEEAMGLLAESFHVFAVDIRGQGRSTWTPKRYSLDNFGNDLVRFISLVVKRPVIVSGNSSGGVLAAWLSAYAMPGQIRAALCEDTPFFASELVPAHGHSVRQAAGPAFELYRTYLGDQWCVADWEGFCRAARRSPSKIMSLFPSSDEPPQNLKEYDPEWARAFYEGTVALHCPHDLMLSQVKTPILITHHARAVDPHSGDLLGALSDFQAERAQAIIESAGVPVEYASFPDALHMMHQFEPERFAEVLTSWVARLPADTPGAHHHHHH
notes: as for B1

Target: the molecule itself
Assay: Blue-Native-PAGE, oligomeric conformation (self-association of identical chains)
Source text: Comparison of the native molecular weight (oligomeric conformation) between single purified zearalenone-cleaving polypeptides was done via Blue-Native-PAGE. Dilutions of the elutes were supplied with not denaturating loading dye (e.g. 2× loading dye: 0.126 M tris(hydroxymethyl)aminomethan/hydrochloric acid pH 6.8, 20.0% glycerol, 4.0% Coomassie Blue G-250) and separated on a 4-15% polyacrylamid gel under native conditions (e.g. Mini-PROTEAN® Tetra Cell System, 1658004EDU+4-15% Mini-PROTEAN® TGX™ Precast Protein Gels, 4561083EDU, Bio-Rad Laboratories GmbH) (5× Anode Buffer: 0.125 M Tris(hydroxymethyl)aminomethane, 0.960 M Glycine, 1× Kathode Buffer: Anode Buffer+0.02% Coomassie Blue G250; 200 V, 40 minutes). The peptide bands were visualized by Coomassie staining. The oligomeric state of selected zearalenone-cleaving polypeptides was determined by size exclusion chromatography, SEC-MALS or X-Ray crystallography. Homo-dimers (e.g. SEQ ID NO. 1) migrated faster across the BN-PAGE gel matrix, while homo-tetramers (e.g. SEQ ID NO. 2-35) were retained in the gel matrix to a higher extent. The oligomeric conformation of the zearalenone-cleaving polypeptides was determined relatively to the migration of homo-dimeric and homo-tetrameric peptides.

Binding result, binds:
B1
B2
B3
B4
B5
B6
B7
B8
B9
B10
B11
B12
B13
B14
B15
